According to US11162124B2, “Alcohol dehydrogenase mutant and application thereof in cofactor regeneration” (Jiangnan University, priority 2018, dated 2021):
Residue numbers refer to the chain shown, from its start.

Columns and labels:
[1] = biological target: T1, alcohol dehydrogenase KpADH mutant M3 (Y127M; parent SEQ ID No. 1) (Vanderwaltozyma polyspora, UniProt A7TM80, Y127M); assay: Kinetic analysis of KpADH mutant M3 toward diol co-substrates; type: biochemical
T1 sequence (A7TM80 1-342 Y127M): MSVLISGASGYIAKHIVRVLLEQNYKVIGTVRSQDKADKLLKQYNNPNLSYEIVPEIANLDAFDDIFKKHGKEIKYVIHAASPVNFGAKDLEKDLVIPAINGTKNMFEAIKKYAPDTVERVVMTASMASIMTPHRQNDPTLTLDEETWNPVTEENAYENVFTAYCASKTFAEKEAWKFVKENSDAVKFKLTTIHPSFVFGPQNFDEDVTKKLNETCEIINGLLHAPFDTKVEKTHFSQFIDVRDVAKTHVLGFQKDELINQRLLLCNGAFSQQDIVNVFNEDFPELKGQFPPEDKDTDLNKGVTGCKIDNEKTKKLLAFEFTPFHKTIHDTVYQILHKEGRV
Experimental: M3 is obtained by mutating tyrosine at position 127 into methionine in alcohol dehydrogenase having an original amino acid sequence as set forth in SEQ ID No. 1;
(§1) Changes in absorbance at 340 nm are measured.
(§2) The enzyme activity is calculated using the following formula: Enzyme activity (U)=EW×V×10^3/(6220×I);
(§3) In the formula, EW is the change in absorbance at 340 nm in 1 min; V is the volume of the reaction solution in mL; 6220 is the molar extinction coefficient of NAD(P)H in L/(mol·cm); I is optical distance in cm.
(§4) One unit of activity (U) corresponds to the amount of enzyme required for the catalytic oxidation of 1 μmol NADP^+ per minute under the above conditions.
(§5) Kinetic measurement is conducted according to the enzyme activity assay, with 10 μL of alcohol substrates of different concentrations, 1 mM NADP^+, 10 μL of enzymes of appropriate concentrations, 170 μL of glycine-sodium hydroxide buffer at pH 9.5, with each sample in triplicate. […] The calculation formulas are as follows: […]
(§6) The Vmax and Km values can be calculated from the intercepts of the double reciprocal plot on the X and Y axes;
(§7) The kcat value can be further calculated according to the formula.
(§8) The activity of KpADH under different substrate concentrations and cofactor concentrations was measured, and a double reciprocal plot was made according to the reciprocals of the activity and substrate concentration. The kinetic parameters were calculated.
(§9) The activity of KpADH under different substrate concentrations and cofactor concentrations was measured, and a double reciprocal plots were made according to the reciprocals of the activity and substrate concentration. The kinetic parameters were calculated.

[2] = biological target: T2, alcohol dehydrogenase KpADH mutant M5 (V84I/Y127M; parent SEQ ID No. 1) (Vanderwaltozyma polyspora, UniProt A7TM80, V84I/Y127M); assay: Kinetic analysis of KpADH mutant M5 toward diol co-substrates; type: biochemical; settings: mutant M5 relative to wild-type KpADH
T2 sequence (A7TM80 1-342 V84I/Y127M): T1 sequence (A7TM80 1-342 Y127M) with V84I
Experimental: the M5 is obtained by mutating valine at position 84 into isoleucine and tyrosine at position 127 into methionine in alcohol dehydrogenase having an original amino acid sequence as set forth in SEQ ID No. 1.
as §1, §2, §3, §4, §5, §6, §7, §8, §9

OCCCCO = assay: purified protein, by the assay type; settings: Gly-NaOH pH 9.5, 30° C.
[3] = biological target: T3, alcohol dehydrogenase KpADH mutant M1 (V84I; parent SEQ ID No. 1) (Vanderwaltozyma polyspora, UniProt A7TM80, V84I); assay: Kinetic analysis of KpADH mutant M1 toward diol co-substrates; type: biochemical
T3 sequence (A7TM80 1-342 V84I): T1 sequence (A7TM80 1-342 Y127M) with V84I, M127Y
Experimental: M1 is obtained by mutating valine at position 84 into isoleucine in alcohol dehydrogenase having an original amino acid sequence as set forth in SEQ ID No. 1;
as §1, §2, §3, §4, §5, §6, §7, §8, §9

[4] = biological target: T4, alcohol dehydrogenase KpADH mutant M2 (Y127C; parent SEQ ID No. 1) (Vanderwaltozyma polyspora, UniProt A7TM80, Y127C); assay: Kinetic analysis of KpADH mutant M2 toward diol co-substrates; type: biochemical
T4 sequence (A7TM80 1-342 Y127C): T1 sequence (A7TM80 1-342 Y127M) with M127C
Experimental: M2 is obtained by mutating tyrosine at position 127 into cysteine in alcohol dehydrogenase having an original amino acid sequence as set forth in SEQ ID No. 1;
as §1, §2, §3
One unit of activity (U) corresponds to the amount of enzyme required for the catalytic oxidation of 1 μmol NADP^+ per minute under the above conditions. […]
as §6, §7, §8, §9

[5] = mutant M1, 1 mM NADP+, Gly-NaOH pH 9.5, 30° C.
[6] = mutant M1 relative to wild-type KpADH

OCCCCCO [1,5-pentanediol]
catalytic efficiency kcat/Km, times that of wild-type KpADH ([1]; mutant M3 relative to wild-type KpADH): 4.36 times
kcat/Km value, times that of wild-type KpADH [2]: 3.14 times

alcohol dehydrogenase KpADH mutant M5 (V84I/Y127M; parent SEQ ID No. 1) (Vanderwaltozyma polyspora DSM 70294; V84I/Y127M)
Km (OCCCCO; other: mutant M5, 1 mM NADP+): 11.3 ± 0.8 mM
kcat (OCCCCO; other: mutant M5, 1 mM NADP+): 0.378 s⁻¹
kcat/Km (OCCCCO; other: mutant M5, 1 mM NADP+): 33.5 M⁻¹ s⁻¹

alcohol dehydrogenase KpADH mutant M3 (Y127M; parent SEQ ID No. 1) (Vanderwaltozyma polyspora DSM 70294; Y127M)
Km (OCCCCO; other: mutant M3, 1 mM NADP+): 12.1 ± 0.9 mM
kcat (OCCCCO; other: mutant M3, 1 mM NADP+): 0.28 s⁻¹
kcat/Km (OCCCCO; other: mutant M3, 1 mM NADP+): 23.2 M⁻¹ s⁻¹

OCCCCO [1,4-butanediol]
kcat [3, 5]: 1.26 ± 0.0217 s⁻¹
kcat/KM [3, 5]: 10.3 M⁻¹ s⁻¹
kcat value, times that of wild-type KpADH [3, 6]: 7.3 times
kcat/Km value, times that of wild-type KpADH [3, 6]: 4.53 times
catalytic rates kcat [4]: 27.8 mM
catalytic rates kcat ([1]; mutant M3): 16.8 mM
kcat/Km value, times that of wild-type KpADH [2]: 14.7 times

alcohol dehydrogenase KpADH mutant M4 (V84I/Y127C; parent SEQ ID No. 1) (Vanderwaltozyma polyspora DSM 70294; V84I/Y127C)
Km (OCCCCO; other: mutant M4, 1 mM NADP+): 30.4 ± 1.3 mM
kcat (OCCCCO; other: mutant M4, 1 mM NADP+): 0.652 s⁻¹
kcat/Km (OCCCCO; other: mutant M4, 1 mM NADP+): 21.4 M⁻¹ s⁻¹

alcohol dehydrogenase KpADH mutant M2 (Y127C; parent SEQ ID No. 1) (Vanderwaltozyma polyspora DSM 70294; Y127C)
Km (OCCCCO; other: mutant M2, 1 mM NADP+): 38.1 ± 1.9 mM
kcat (OCCCCO; other: mutant M2, 1 mM NADP+): 0.463 s⁻¹
kcat/Km (OCCCCO; other: mutant M2, 1 mM NADP+): 12.2 M⁻¹ s⁻¹
